Laboratory results: patent publication US9833497B2, “Human originated EGF domain proteins and use of the same” (CHENGDU SOURCEBIO LIMITED-LIABILITY COMPANY, priority 2013, dated 2017)

B1: PRT598 (protein, listed as Homo sapiens)
chain: CSCNSHSSRCHFDMTTYLASGGLSGGVCEDCQHNTEGQHCDRCRPLFYRDPLKTISDPYACIP
B2: PRT845 (protein, listed as Homo sapiens)
chain: CQCNGHADTCNEQDGTGCPCQNNTETGTCQGSSPSDRRDCYKYQCAKCRESFHGSPLGGQQCYR
B3: PRT863 (protein, listed as Homo sapiens)
chain: CFCNGHADQCIPVHGFRPVKAPGTFHMVHGKCMCKHNTAGSHCQHCAPLYNDRPWEAADGKTGAPNECRT
B4: PRT864 (protein, listed as Homo sapiens)
chain: CKCNGHADTCHFDVNVWEASGNRSGGVCDDCQHNTEGQYCQRCKPGFYRDLRRPFSAPDACKP

Tests used:
Format in all cases: cell-based
[1] = tested on: Pseudomonas aeruginosa; assay: MIC against Gram-negative bacteria: Pseudomonas aeruginosa; details: 5×10^5 CFU/mL; for MIC (μg/mL) P. aeruginosa: 10 h cultivation at 37° C.
Method: (§1) 1. Gram-negative bacteria, such as E. coli BL21, Pseudomonas aeruginosa, Klebsiella pneumonia, Enterobacter cloacae, Aeromonas hydrophila, Citrobacter diversus, Moraxella catarrhalis, Proteus mirabilis, Proteus vulgaris, Serratia marcescens, etc were streaked on solid LB medium and cultured respectively. Then, typical clones were picked, inoculated into common liquid LB medium respectively, and cultured at 37° C. with shaking at 185 rpm until the McFarland specific turbidity was 0.5. The bacterial culture of each of Gram-negative bacteria was centrifuged at 4000×g for 3 min, the supernatant was discarded, and the thalli were resuspended with fresh LB medium.
(§2) 2. The above-mentioned bacterial suspensions were diluted and inoculated into 96-well plates with the final concentration of the bacterial suspension being 5×10^5 CFU/mL per well.
(§3) 3. Each of the purified human-originated EGF domain proteins (PRT1 to PRT1498 in Table 1) was added to each of the above wells and subjected to two-fold serial dilution in concentration. Three parallel wells were set up for each concentration in the gradient.
(§4) 4. The above-mentioned 96-well plates were placed and cultured at 37° C. in shaking incubator shaking at 175 rpm. […] The minimal inhibitory concentration MIC is defined as the lowest concentration of the recombinant protein at which there is no growth of the bacteria.

[2] = tested on: Aeromonas hydrophila; assay: MIC against Gram-negative bacteria: Aeromonas hydrophila; details: 5×10^5 CFU/mL; for MIC (μg/mL) A. hydrophila: 10 h cultivation at 37° C.
Method: as §1, §2, §3, §4

[3] = tested on: Proteus vulgaris; assay: MIC against Gram-negative bacteria: Proteus vulgaris; details: 5×10^5 CFU/mL; for MIC (μg/mL) P. vulgaris: 10 h cultivation at 37° C.
Method: as §1, §2, §3, §4

[4] = tested on: Citrobacter diversus; assay: MIC against Gram-negative bacteria: Citrobacter diversus; details: 5×10^5 CFU/mL; for MIC (μg/mL) C. diversus: 10 h cultivation at 37° C.
Method: as §1, §2, §3, §4

[5] = tested on: Proteus mirabilis; assay: MIC against Gram-negative bacteria: Proteus mirabilis; details: 5×10^5 CFU/mL; for MIC (μg/mL) P. mirabilis: 10 h cultivation at 37° C.
Method: as §1, §2, §3, §4

[6] = tested on: E. coli DH5α; assay: Antibacterial activity: MIC and growth curve against E. coli DH5α in 96-well plate; details: minimal inhibitory concentration against E. coli DH5α; 96-well plate, 5×10^5 CFU/mL, 37° C., judged after 8 h
Method: 1. E. coli DH5α was exemplified. E. coli DH5α was streaked and cultured on LB solid medium. Then, a typical clone was picked and inoculated into common LB liquid medium, cultured at 37° C. with shaking at 185 rpm until the logarithmic growth phase was reached (OD600 of about 0.5). The bacterial culture was centrifuged at 4000×g for 3 min, the supernatant was discarded, and the thalli were resuspended with fresh LB medium.
2. The above-mentioned bacterial suspension was diluted and inoculated into a 96-well plate with the total volume of 100 μL per well and a bacterial count of 5×10^5 CFU/mL.
3. The recombinant protein hF VII-EGF1 was added to the above-mentioned wells with the final protein concentration in the well of the highest protein concentration being 50 μg/mL. Basing on this final concentration, a two-fold serial dilution was performed till a protein concentration gradient consisting of 50, 25, and 12.5 μg/mL was set up. Three parallel wells were set up for each concentration in the gradient.
as §4, with “plate was” for “plates were”, “rpm. Samples were taken every 30 min, the absorbance values were determined at 600 nm wavelength under a ultra violet spectrophotometer, and an inhibition curve was plotted.” for “rpm.”
According to the experimental procedures in Example 14, the minimal inhibitory concentrations (MIC, μg/mL) of the other human-originated EGF domain proteins (PRT2 to PRT1498 in Table 1) for E. coli DH5α were determined.

[7] = tested on: Klebsiella pneumonia; assay: MIC against Gram-negative bacteria: Klebsiella pneumonia; details: 5×10^5 CFU/mL; for MIC (μg/mL) K. pneumonia: 10 h cultivation at 37° C.
Method: as §1, §2, §3, §4

[8] = tested on: Serratia marcescens; assay: MIC against Gram-negative bacteria: Serratia marcescens; details: 5×10^5 CFU/mL; for MIC (μg/mL) S. marcescens: 10 h cultivation at 37° C.
Method: as §1, §2, §3, §4

[9] = tested on: E. coli BL21; assay: MIC against Gram-negative bacteria: E. coli BL21; details: 5×10^5 CFU/mL; for MIC (μg/mL) E. coli BL21: 10 h cultivation at 37° C.
Method: as §1, §2, §3, §4

[10] = tested on: Enterobacter cloacae; assay: MIC against Gram-negative bacteria: Enterobacter cloacae; details: 5×10^5 CFU/mL; for MIC (μg/mL) E. cloacae: 10 h cultivation at 37° C.
Method: as §1, §2, §3, §4

[11] = tested on: Moraxella catarrhalis; assay: MIC against Gram-negative bacteria: Moraxella catarrhalis; details: 5×10^5 CFU/mL; for MIC (μg/mL) M. catarrhalis: 10 h cultivation at 37° C.
Method: as §1, §2, §3, §4

Molecule	MIC [6] [µg/mL]	MIC (μg/mL) P. aeruginosa [1] [µg/mL]	MIC (μg/mL) A. hydrophila [2] [µg/mL]	MIC (μg/mL) P. vulgaris [3] [µg/mL]	MIC (μg/mL) C. diversus [4] [µg/mL]	MIC (μg/mL) P. mirabilis [5] [µg/mL]	MIC (μg/mL) K. pneumonia [7] [µg/mL]	MIC (μg/mL) S. marcescens [8] [µg/mL]	MIC (μg/mL) E. coli BL21 [9] [µg/mL]	MIC (μg/mL) E. cloacae [10] [µg/mL]	MIC (μg/mL) M. catarrhalis [11] [µg/mL]	further results
B1	25											MIC P. aeruginosa ([1]; 96-well plate, 37° C., 10 h): 12.5 µg/mL; MIC A. hydrophila ([2]; 96-well plate, 37° C., 10 h): 25 µg/mL; MIC P. vulgaris ([3]; 96-well plate, 37° C., 10 h): 50 µg/mL; MIC C. diversus ([4]; 96-well plate, 37° C., 10 h): 50 µg/mL; MIC P. mirabilis ([5]; 96-well plate, 37° C., 10 h): 12.5 µg/mL; MIC K. pneumonia ([7]; 96-well plate, 37° C., 10 h): 50 µg/mL; MIC S. marcescens ([8]; 96-well plate, 37° C., 10 h): 25 µg/mL; MIC E. coli BL21 ([9]; 96-well plate, 37° C., 10 h): 50 µg/mL; MIC E. cloacae ([10]; 96-well plate, 37° C., 10 h): 12.5 µg/mL; MIC M. catarrhalis ([11]; 96-well plate, 37° C., 10 h): 25 µg/mL
B2	25	25	25	12.5	12.5	12.5	25	50	12.5	12.5	25	
B3	50	25	12.5	25	12.5	12.5	50	12.5	12.5	12.5	12.5	
B4	12.5	12.5	25	12.5	12.5	50	25	50	12.5	50	25	
